Source: publication PMC8348223, “Direct Measurement of the Affinity between tBid and Bax in a Mitochondria-Like Membrane” (International Journal of Molecular Sciences, 2021)

Target: the molecule itself
Test: single particle fluorescence intensity (stoichiometry) analysis of confocal images; same bilayer and images as a1; event intensity normalised by the monomer brightness measured by FCS and binned into putative monomers, dimers, etc.

B1: Bax 47C labelled with HyLite488 (Bax-HyLite488) (natural protein, human, UniProt Q07812 1-192, looked up)
chain: MDGSGEQPRGGGPTSSEQIMKTGALLLQGFIQDRAGRMGGEAPELACDPVPQDASTKKLSEALKRIGDELDSNMELQRMIAAVDTDSPREVFFRVAADMFSDGNFNWGRVVALFYFASKLVLKALATKVPELIRTIMGWTLDFLRERLLGWIQDQGGWDGLLSYFGTPTWQTVTIFVAGVLTASLTIWKKMG
modifications: HyLite488 bound by maleimide chemistry to the cysteine at position 47
notes: full-length human Bax; the two endogenous cysteines (62 and 126) are replaced with alanine, and leucine 47 is changed to cysteine; Labelling efficiency 81%; also called Bax-HiLyte488
B1: binds.
